Source: article PMC3970815 (Biochemistry, 2014)
Ends that are not written are not given here. fluorescein = fluorescein label, on the N-terminus

Target: T1, fluorescein-labeled consensus propeptide (FpCon)
T1 peptide: fluorescein-AVFLSREQANQVLQRRRR
Assay: fluorescence polarisation

B1: Wild-type human gamma-glutamyl carboxylase (GGCX) with a carboxyl-terminal 12-amino acid epitope tag, embedded in DOPC/MSP1D1 nanodiscs (enzyme, UniProt P38435 1-758, looked up)
chain: MAVSAGSARTSPSSDKVQKDKAELISGPRQDSRIGKLLGFEWTDLSSWRRLVTLLNRPTDPASLAVFRFLFGFLMVLDIPQERGLSSLDRKYLDGLDVCRFPLLDALRPLPLDWMYLVYTIMFLGALGMMLGLCYRISCVLFLLPYWYVFLLDKTSWNNHSYLYGLLAFQLTFMDANHYWSVDGLLNAHRRNAHVPLWNYAVLRGQIFIVYFIAGVKKLDADWVEGYSMEYLSRHWLFSPFKLLLSEELTSLLVVHWGGLLLDLSAGFLLFFDVSRSIGLFFVSYFHCMNSQLFSIGMFSYVMLASSPLFCSPEWPRKLVSYCPRRLQQLLPLKAAPQPSVSCVYKRSRGKSGQKPGLRHQLGAAFTLLYLLEQLFLPYSHFLTQGYNNWTNGLYGYSWDMMVHSRSHQHVKITYRDGRTGELGYLNPGVFTQSRRWKDHADMLKQYATCLSRLLPKYNVTEPQIYFDIWVSINDRFQQRIFDPRVDIVQAAWSPFQRTSWVQPLLMDLSPWRAKLQEIKSSLDNHTEVVFIADFPGLHLENFVSEDLGNTSIQLLQGEVTVELVAEQKNQTLREGEKMQLPAGEYHKVYTTSPSPSCYMYVYVNTTELALEQDLAYLQELKEKVENGSETGPLPPELQPLLEGEVKGGPEPTPLVQTFLRRQQRLQEIERRRNTPFHERFFRFLLRKLYVFRRSFLMTCISLRNLILGRPSLEQLAQEVTYANLRPFEAVGELNPSNTDSSHSNPPESNPDPVHSEF
modifications: glycoprotein (glycosylation sites shown in Figure 3); disulfide bond between cysteine 99 and cysteine 450
- stoichiometry N: 1 propeptide per GGCX-nanodisc
